We go through 40 sequences from the nanobody polyreactivity screen of Harvey et al. (2022).

The data set can be described thus: yeast display, Sf9 membrane polyspecificity reagent, FACS + sequencing; frameworks hold sequencing errors. The procedure, abridged:
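Polyreactivity labels are assigned by the sorting gate from which each nanobody was recovered. The gates were low and high (top ~1%), set on anti-HA fluorescence for expression and streptavidin fluorescence for reagent binding. Before sorting, galactose-induced (36–48 hours) yeast display cells were stained for 1 hour at 4 °C with 10% biotinylated, detergent-solubilized Sf9 membrane reagent.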
Consider “QVQLVESCGGLVQAGGSLRLICDDSGNTFNRYAMGWYRQAPGKERELVADITSGGRTYYAYSVKGRFTISRDNAKNTVYLQMNSVKPVDTAVYYCAGEWWDLGNFYWSYRYDYWGQCTQVTVSS”, for which the “polyreactivity (PSR sort gate)” value is on record as “high polyreactivity”. Under “QVQLVESGGGLVQAGGSLRLSCAASGIIFRVNAMGWYRQAPGKERELVAAISSGGRTYYADSVKGRFTISGDNAKNTVSLQMNSLKPEDTAVYYCNAGRLRYIFKSYDYWGQGTQVSVSS” stands “high polyreactivity”; under “QVQLVESGGGLVQAGGSLRLSCAASGRTFLYYTMGWYRQAPGTERELVATINYSGGRTYYADSVKGRFTISRDNANNTVYFQMNSLKPVATAVYFWAKSGRALWWYDYWGQGTQVTVSS”, “high polyreactivity”. Consider “QVQLVESGGGLVQAGGSLRLSCAASGSIFTLYAIGWSRQAPGKERELVAAISRRGGSTYYADSVKGRFTISRDNAKNTVYLQMNSLKPEDTAVYYCNAYRSNYLIGSSSYGLDYWGHGTQVTVSS”, for which the “polyreactivity (PSR sort gate)” value is on record as “high polyreactivity”. Under “QVQLVESAGGLVQAGGSLRLSCAASGGIFSRYSMGWYRQAPGKERELVAAITRSGGSTYYADSVKGRFTISRDNAKNTVYLQLNSLKPEDTAVYYCSARRRGGSKYGYWGQGTQVTVSS” stands “high polyreactivity”. The same measure for “QVQLVESGGGLVQAGGSLRLSCAASGGTFVSYAMGWYRQAPGKERELVVAITYSGGSTYYADSVKGRFTISRDNAKNTVYLQMNRLKPEDTAVYYCAAPKFSYFSYSPRGKFKYEYWGQGTQVTVSS”: “low polyreactivity”; for “QVQLVESGGGLVQAGGSLRLSCAASGSTFTENAMGWYRQAPGKERELVATISTSDGSTHYADSVKGRFTISRDNAKNTVYLQMNSLKPEDTAVSYCAARPDYYLWHGYYTRRHYYWGQGTQVTVSS”: “low polyreactivity”.

On to “QVQLVESGGGLVQAGGSLRLSCAASGTIVGYAMGWYRQAPGKERELVASNSWRVGSTYYADSVKGRFTISRDNAKNTVYLQMISLKPEDTAVYYCNAASYVFLYYPGGIYRDDYWGQGTQVTVSS”, for which the “polyreactivity (PSR sort gate)” value is listed as “low polyreactivity”. The same measure for “QVQLVESGGGLVQAGGSLRLSCAASGRTFLWNAMGWYRQAPGKERELVARINLSGGRTYYADSVKGRFTISRDNAKNTVYLQMNSLKPEDTAVYYCAATVVRYRRDSWGQGTQVTVSS”: “low polyreactivity”; for “QVQLVESGRGLVQAGGSLRISCAASGSTFYPNAMGWYRQAPGKEREFVAAISTSAGRTYYADSVKGRFTISRDNAKNTVYLQMNSLKPEDTAVYYCNARYWVYYVYEFDSWGQGTQVTVSS”: “low polyreactivity”. The same measure for “QVQLVESGGGLVQAGGSLRLSCAASGRIFRANAMGWYRQAPGKERELVAAISTSGGSTTYADSVKGRFTISRDNAKNTVYLQMNCLKPEDTAVYYCAVDSWLKWRDKWVIRHDYWGQGTQVTVSS”: “high polyreactivity”; for “QVQLVESGGGLVQAGGSLRLSCAASGSTFDHYDMGWSIPAPGKERELVAAISYSGSTTVYADSVKGRFTISRDNAMNTVYLQMNSLKPEDTAVYYCAASGDVIQSPMDYWGQGTQVTVSS”: “low polyreactivity”.

Consider “QVQLVESGGGLVQAGGSLRLSCAASGRTFDFYAMGWYRQAPGKERELVAAISSRGGSTYYADSVKGRFTISRDNAKNTVYLQMNSLKAEDTAVYYCAKDLGYRGRYNYWGQGTQVTVSS”, for which the “polyreactivity (PSR sort gate)” value is given as “low polyreactivity”.

In the case of “QVQLVESGGGLVQAGGSLRLSCAASGTIIVWNAMGRYRQARGKERELVASITSGASTNYADSVKGRFTISRDNAKNTVYLQMNSLKPEDTAVYYCNAGPRRTISRSRLRSAPKYDYWGQGTQVTVSS”, the “polyreactivity (PSR sort gate)” value is “low polyreactivity”. The same measure for “QVQLVESGGCLVQAGGSLRLSCAASGLTFRGYAKGWYRPAPGKERELVAAITSSAGRTNYADSVKGRFTISRDNAKNTVYLQMNSLNPEDTAVYYCAAAHSYTTRWGYYKFNYWGQGTQVSVSS”: “high polyreactivity”. The same measure for “QVQLVESGGCLVQAGGSLRLIRDASGFIIRPYAMGWYRQAPGKEREFVAAITGGGSTYYADSVKGRFTISRDNAKNTVYLQMNSLKPEDTAVYYCNADRRRRSGGFAGWHFQRKDYWGQGTQVTVSS”: “low polyreactivity”; for “QVQLVESGGGLVQAGGSLRLSCAASGRIFWGNAMGWYRQAPGKERELVAAINWSGGSTYYADSVKGRFTISRDNAKNTVYLQMNTLKPEDTAVYYCAADANGIVRYYYWGQGTQVTVSS”: “low polyreactivity”.

As for “QVQLVESGGGLVQAGVSLRLSCAASVSIFSGNTMGWYRQAPGKERELVAAIRWRGGTYYADSVKGRFTISRDNAKNTVYLQMNSLKPEDPAVYYCATSVKPSYDYWGQGTQVTVSS”, the “polyreactivity (PSR sort gate)” value was “low polyreactivity”. The same measure for “QVQIVESGGGLVQAGGSLRLSCAAYGSIFVRNVMGWYRQAPGKERELVATIRYRGGSTYYADSVKGRFTISRDNAKNTVYLQMNSLKPEDTAVYYCNARYLWADEYYYWGQGTQVTVSS”: “low polyreactivity”; for “QVQLVESGGGLVQAGGSLRLICAASGRTFRSNDMGWYRQAPGKERELVAANSLGTGTTYYADSVKGRFTISRDNAKNTVYLQMNSLKPEDTAVYYCHTDYRPIDTEYTSGYDYWGQGTQVTVSS”: “low polyreactivity”. The same measure for “QVKLVESGGCLVQAGCSLRLSCAASGRTFHGYAMGWYRQAPGTERELVAAITVSGDSTYYADSVKGRFTISRDNAKNTVYLQMNSLKPEDTAVYYCNASFREPSTPVYLVAFDYWGQGTQVTVSS”: “low polyreactivity”; for “QVQLVESGGGLVQAGGSLRLSCAASGSTSWYNAMGWYRQAPGKESELVAAISKSGTSTHYADSVKGRFTISRDNAKNTVYIQMNSRKPEDTAVYYCNRVRYALRRFYGTAVGYWGQGTQVTVSS”: “low polyreactivity”; for “QVQLVESGGGLVQAGGSLRLSCAASGFIFSSNDMGWYRQAPGKERELVAAIDYSGGSTYYADSVKGRFTISRDNAKNTVYLQMNSLKPEDTAVYYCAATVYNPTDYYSPYYYWGQGTQVTGSS”: “low polyreactivity”.

Regarding “QVHHEETGGGIVQAGGSLRLSCAASGRIFDYIAMGWYRQAPGKERELVAAISQSGGSTYYADSVKGRFTISRDNAKNTVYLQMNSLKPEDTAVYYCAAFISRSRNEYWGQGTLVTVSS”, the “polyreactivity (PSR sort gate)” value was “high polyreactivity”. The same measure for “QVQLVESGGGLVQAGGSLRLSCAASGITFPFYAMGWYRQAPGKERELVAAISWSDVDTYYADSVKGRFTISRDNAKNTVYLQMNSLKPEDTAVYYCAVSGVHPYWSDYEYWGQGTQVTVSS”: “low polyreactivity”; for “QVQLVESGGGLVQAGGSLRLSCAASGITFPRYAMGWYRQAPGKERELVARISWGGGRTYYADSVKGRFTISRDNAKNTVYLPMNSLKPEDTAVYYSAARTWADPYGYWGQGTQVTVSS”: “high polyreactivity”; for “QVQLVESGGGEVQAGGSLRLSCAASGIIFVDYVLGWYRQAPGTEMELVASIDGSGGSTNDADSVKGRFTISRDNAKNTVYLQLNRLKPEDTAVYYCTADNILYWSTLDYWGQGTHVTVSS”: “low polyreactivity”.

As to “QVQLVESGGGLVQAGGSLRLSCAASGSIFYKYAMGWYRQAPGKERELVAAISGSGGRTYYADSVKGRFTISRDNAKNTVYLQMNSLKPEDTAVYYCAAAKRTWRSDYWGQGTQVTVSS”, the “polyreactivity (PSR sort gate)” value is given as “high polyreactivity”. The same measure for “QVHLVESGGCLVQAGGSLRLSCAASGSTFPSYAMGWYRQAPGKERELVAAINSGGGTNYADSVKGRFTITRDNAKNTVYLQLNILKPEDSAVYYGAADVWKLYDYWGQGTQVTVSS”: “low polyreactivity”.

Take “QVQLVESGGGLVQAGGSLRLSCAASGITLSWYAMGWSRQAPGKERELVAGISGRGGRTYYADSVKGRFTISRDNAKNTVYLQMNSLKPEDTAVYYCAADCPGYRSYDYWGQGTQVTVSS”: the “polyreactivity (PSR sort gate)” value is on record as “high polyreactivity”. Under “QVQLVESGGGLVQAGGSLRLSCAATGFIFPLYAMGWYRQAPGKQSELVAAITWRGDTTSYADSVKGRFTISRDNAKNTVYLQMNSLKPVDPAVYYCAADSYRYRPGYGPVLYDYWGQGTQVTVSS” stands “high polyreactivity”. With “QVQLVESGGGLVQAGGSLRLSCAASGLTFVDNAMGWYRQAPGKESELVAAITKRGGRTYYADSVKGRFTISRDNAKNTFYLQMNSLKPEDTAVYYCARESGNDSSRRLDYWGQGTQVTVSS”, the “polyreactivity (PSR sort gate)” value is “low polyreactivity”. The same measure for “QVQLGDSGGGLVQAGGSLRLSCAASGRIFGVYAMGWYRQAPGKERELVAAISRNGGSTYYADSVKGRFTISRDNAKNTVYLQMNSLKPEDTAVYYCATGGGVEAAGAYWGQGTQVTVSS”: “low polyreactivity”.

For the sequence “QVQLVESGGGLVQAGGSLRLSCAASGIIFGSYAMGWSRQAPGKERELVAAISYSGSTFYADSVKGRFTISRDNAKNTVYLQMNSLKPEDTAVYYCNADRYAKWYRKYRPNDYWGQGTQVTVSS”, the “polyreactivity (PSR sort gate)” value is “high polyreactivity”. Under “QVHLVESGGGLVQAGGILRLSCAASGSTFGYYAMGWYRQAPGKERELVAAITWSGDSTYADSVKGRFTISRDNAKNTVYLQMNSLKPEDTAVYYCARRGFLGHWPRPSYDYWGQGTQVTVSS” stands “low polyreactivity”. For “QVQLVESGGGLVQAGGSLRLSCAASGRTFYRKAMGWYIQAPGKEREFVAVISVSGGSTYYADSVKGRFTISRDNAKITVYLQMNSLKPEDTAVYYCAKRGPVRKTAYDYWGQGTQVTVSS”, the “polyreactivity (PSR sort gate)” value is “low polyreactivity”.

On to “QVQLVESGGGLGQAGGSLRLSCAASGITFGDYAMGWYIQAPGKERELVAAISTSGVRTYYADSVKGRFTISRDNAKNTVYLQMNSLKTEDTAVYYCAAKYYGEMYYWGQVTQVTVSS”, for which the “polyreactivity (PSR sort gate)” value is recorded as “low polyreactivity”.

Consider “QVQLVDSGGGLVQAGGSLRLSCAASGLTCRKYTMGWYRQAPGKERELVAAISFRGGSTYYADSVKGRFTISRDNAKNTVYLQMNSLKPEDTAVYYCNARKRYSTDPGDYWGQGTQVTVSS”, for which the “polyreactivity (PSR sort gate)” value is recorded as “high polyreactivity”. Regarding “QLQLVESGGVLVQAGGSLRLSCAASGRTFSEYLQGCYRPPPGKERELVAASTRGGGGTYYADSVKGRFTISRDNAKNTVYFQMNSLKPEDTAVYYCAAGRRGSAGYYRQFGYGYWGQGTQVTVSS”, the “polyreactivity (PSR sort gate)” value is on record as “high polyreactivity”. The same measure for “QVQLVESGGGIVQAGGSLRLSCAASGNIFFWYDMGWYRQAPGKERELVATITSSGGSTYYADSVKGRFTISRDNAKNTVYLQMNSLKPEDTAVYYCNALPYYRDDYWGQGTQVTVSS”: “low polyreactivity”.
